Article PMC9330073, “Cargo Recognition Mechanisms of Yeast Myo2 Revealed by AlphaFold2-Powered Protein Complex Prediction” (Biomolecules, 2022)
Residue numbers refer to the chain shown, from its start.

What was measured:
[1] = target: T1, Myo2-GTD Y1303A (Saccharomyces cerevisiae); assay: ITC
T1 chain: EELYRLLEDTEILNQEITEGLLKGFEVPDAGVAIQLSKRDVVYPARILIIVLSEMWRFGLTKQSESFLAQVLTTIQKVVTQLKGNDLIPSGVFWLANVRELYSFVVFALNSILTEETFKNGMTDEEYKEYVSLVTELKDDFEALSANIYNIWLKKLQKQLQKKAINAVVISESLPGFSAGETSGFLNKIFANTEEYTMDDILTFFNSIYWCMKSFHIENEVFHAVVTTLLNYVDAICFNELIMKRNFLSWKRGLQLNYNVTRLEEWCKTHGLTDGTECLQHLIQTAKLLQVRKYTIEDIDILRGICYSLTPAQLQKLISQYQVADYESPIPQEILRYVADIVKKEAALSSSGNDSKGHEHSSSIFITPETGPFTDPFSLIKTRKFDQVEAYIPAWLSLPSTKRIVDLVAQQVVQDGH

[2] = target: T2, Myo2-GTD D1297N (Saccharomyces cerevisiae); assay: ITC
T2 chain: T1 chain with D140N, A146Y

[3] = target: T3, Myo2-GTD (globular tail domain of Myo2) (Saccharomyces cerevisiae (strain S288c), UniProt P19524 1152-1574); assay: ITC
T3 chain: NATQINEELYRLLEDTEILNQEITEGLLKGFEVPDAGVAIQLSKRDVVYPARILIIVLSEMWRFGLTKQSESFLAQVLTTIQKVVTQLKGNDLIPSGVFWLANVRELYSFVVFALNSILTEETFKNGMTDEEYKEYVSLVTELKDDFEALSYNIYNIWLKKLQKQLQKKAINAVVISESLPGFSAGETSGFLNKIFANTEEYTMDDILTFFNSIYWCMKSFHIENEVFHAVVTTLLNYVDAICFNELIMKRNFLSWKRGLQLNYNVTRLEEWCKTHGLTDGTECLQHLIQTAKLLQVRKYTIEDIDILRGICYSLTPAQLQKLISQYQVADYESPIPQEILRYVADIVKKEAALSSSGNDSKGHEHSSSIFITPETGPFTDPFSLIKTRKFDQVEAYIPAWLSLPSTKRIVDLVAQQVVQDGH

[4] = target: T4, Myo2-GTD (globular tail domain of Myo2) (Saccharomyces cerevisiae (strain S288c), UniProt P19524 1152-1574); assay: ITC; 500 μM Myo2-GTD in the syringe titrated into 50 μM Kar9-MIS or Pea2-MIS in the cell, 25 °C; one-site binding model; conditions: both partners purified
T4 construct: Myo2 (class V myosin), S. cerevisiae, C-terminal globular tail domain (GTD); Named Trx-Myo2-GTD in the light scattering experiment; also called Trx-Myo2-GTD; source: E. coli BL21(DE3), purified (Ni2+-NTA, size exclusion chromatography); not shown: Trx, N-terminal, kept
T4 sequence (looked up): T3 chain

[5] = target: T4, Myo2-GTD (globular tail domain of Myo2); assay: ITC; 200 μM Vac17-MIS in the syringe titrated into 20 μM Myo2-GTD in the cell, 25 °C; one-site binding model; conditions: both partners purified
[6] = target: T5, Myo2-GTD W1407A (Saccharomyces cerevisiae (strain S288c)); assay: ITC
T5 chain: T1 chain with A146Y, W250A

[7] = target: T6, Myo2-GTD L1331S (Saccharomyces cerevisiae (strain S288c)); assay: ITC
T6 chain: T1 chain with A146Y, L174S

B1: GST-Pea2-CC1 (GST-tagged Pea2-CC1; dimer) (domain or fragment)
chain: AIQEEDSSKKLEELETAFSDLQLAHNFLTKQFENDRAEYVQDIEKLTRTNRELQDKLLNNHSNLSKTEKKLHELEQENKELEKANNKLNSSRH
modifications: N-terminal GST (pGEX-4T-1) left out; GST drives the dimerization
B1 gave a Kd [1] of 11 µM, a Kd [2] of 10 µM and a Kd [3] of 11 µM.

B2: Pea2-CC1 (Trx-tagged; monomer) (domain or fragment, Saccharomyces cerevisiae (strain S288c), UniProt P40091 235-327, looked up)
chain: B1 chain
notes: Pea2 (polarisome subunit), S. cerevisiae, conserved coiled coil CC1 containing residues 235-327; Named Trx-tagged in the light scattering; also called Trx-tagged Pea2-CC1; Pea2-CC1 monomer; source: E. coli BL21(DE3), purified (Ni2+-NTA, size exclusion chromatography); not shown: Trx, N-terminal, kept
With B2 the Kd [4] was roughly 50 µM.

B3: Vac17-MIS (Myo2-interacting sequence of Vac17) (domain or fragment, Saccharomyces cerevisiae (strain S288c), UniProt P25591 112-157, looked up)
chain: PNEAPNDSPQSQSTRSSLGSFQPRPLKIIERQRLCMVTPSKPPKKS
notes: Vac17 (vacuole-related protein 17), S. cerevisiae, region containing residues 112-157 (MIS); Named Trx-tagged in the light scattering; also called Trx-Vas17-MIS; Vac17-MIS wild-type; source: E. coli BL21(DE3), purified (Ni2+-NTA, size exclusion chromatography); not shown: Trx, N-terminal, kept
B3 gave a Kd [5] of roughly 0.3 µM, a Kd [6] of 0.45 µM and a Kd [7] of 0.41 µM.
